Tests used:
[1] = tested on: HSG cells (a human salivary gland cell line); test: Regulated volume decrease (RVD) after hypotonic solution in HSG cells; type: cell-based; details: 6 ng/ml of BMP6 for 4 days
Description: Regulated volume decrease was measured as described previously (Liu et al., J Biol Chem 281:15485-15495, 2006). Briefly SMGs from mice were removed at the end of the study and prepared as described (Liu et al., J Biol Chem 281:15485-15495, 2006). Cells were then loaded with the fluoroprobe calcein (Molecular Probes, Inc., Eugene, Oreg.) and excited at 490 nm. Emitted fluorescence was measured at 510 nm. In situ calibration of the dye was performed. Origin 7.5 (OriginLab, Northampton, Mass.) was used for data analysis and display. Significant difference between individual groups was tested by using analysis of variance.
Although no increase in a number of immunological factors was detected, it is not possible to rule out the possibility that BMP6 expression is a trigger for expression of another soluble factor and is not directly causing the loss of RVD in isolated salivary gland cells from the treated mice. To test for a direct effect of BMP6 on RVD, HSG cells (a human salivary gland cell line) were treated with 6 ng/ml of BMP6 for 4 days and then assayed for a loss in RVD activity (FIG. 8B). […] To date little is known about the role of BMPs in SS and the present work represents the first association.

MDCK1 cells = test: Trans epithelial resistance (TEER) of cell monolayers in transwells; type: cell-based; details: MDCK1 cells grown in 6 ng/ml BMP6 vs without BMP6
Description: (§1) Trans epithelial electrical resistance (TER) of all cell types was measured using a using a volt/ohm meter (Millicel; Millipore, Mass., USA) in an electrode chamber (EVOV; WPI, FL, USA). Cells were allowed to establish monolayers on 0.4-Am pore size polycarbonate filters in 6-mm Transwell chambers (Costar, Mass., USA).
(§2) Tight junction structures are important in the correct functioning of the salivary glands. […] To determine if BMP6 expression could alter epithelial integrity, monolayers of three well differentiated epithelia (SMEI, Caco-2, and MDCK1 cells) grown in the presence of 6 ng/ml BMP6 in transwells were tested for changes in trans epithelial resistance (TEER) compared with cells grown without BMP6 (FIG. 7A). […] BMP6 expression also changed the electrical potential of the glands as well (FIG. 7A).

SMEI cells = test: as above; type: cell-based; details: SMEI cells grown in 6 ng/ml BMP6 vs without BMP6
Description: as §1, §2

Caco-2 cells = test: as above; type: cell-based; details: Caco-2 cells grown in 6 ng/ml BMP6 vs without BMP6
Description: as §1, §2

[2] = tested on: salivary and lacrimal glands of mice; test: Histopathological scoring for lymphocytic infiltrates (focus score); type: in vivo, mouse; details: 20 weeks post cannulation, vs control mice, statistically significant
Description: Submandibular glands (SMG) were removed for histological analysis from mice at the time of sacrifice, and placed O/N in 10% formalin. After fixation, the tissues were dehydrated in an ethanol series and embedded in paraffin according standard techniques. Sections were cut at 5 μm and subsequently stained with hematoxylin and eosin (H&E). Histopathological scoring was performed using the focus score. A focus is an aggregate of 50 or more mononuclear cells per 4 mm^2. Foci were counted through the whole section, in a total of three sections (50 μm between sections) per SG using a 40× magnification. The results were calculated and expressed as foci per 4 mm^2. The focus scores were assessed blindly by two different examiners and the mean scores were determined.
A hallmark of pSS is lymphocytic infiltration in the […] glands, especially salivary and lacrimal glands. To determine the effect of elevated BMP6 on the local immune environment of the salivary gland, histopathological scoring for lymphocytic infiltrates was performed on both salivary and lacrimal glands 20 weeks post cannulation. […] Furthermore, no changes in circulating autoantibodies to anti-Ro/SSA or anti-La/SSB were detected in the animals expressing BMP6 in the salivary glands compared with control mice (FIGS. 5C and 5D).

SMG ducts of mice = test: Electrical potential across the duct of the SMG; type: in vivo, mouse; details: mice transduced with 10^11 particles of AAV5 expressing BMP6, vs GFP control mice
From the text: To measure the electrical potential (EP) across the duct of the SMGs, a procedure was developed to measure the EP by cannulating the duct and inserting the electrode in the cannula. The high impedance electrode was attached to an electrometer (model FD223, World Precision Instrument, Sarasota, Fla.). The electrical potential of the duct was read by placing the ground electronic rode on the adjacent tissues to the opening of the ducts.
To measure electrophysiologic parameters associated with Sjögren's syndrome, a measurement circuit 20 (see FIG. 10) was established between a detection electrode 22 placed in a salivary gland duct and a reference electrode 24 placed in electrical contact with adjacent oral mucosa. In this particular example, the electrical potential was measured across the ducts of SMGs. A procedure was developed to measure TEER by cannulating the electrode of a transmeter (model FD223, World Precision Instrument, Sarasota, Fla.) in the ducts of SMGs of mice (FIG. 10). […]
The detecting electrode included a cannula 26 placed on a 1 mL syringe 28, which was a fixed supporter. […] The trans-epithelial potential was read by placing the ground electrode on the tissues adjacent to the opening of the ducts. Background potential was determined by reading the potential when the detecting electronic rode was placed in saline only.

B1: BMP6: A member of the TGF-β superfamily of growth factors; added to cultured cells at 6 ng/ml (protein, UniProt P22004 375-513, looked up)
Bone morphogenetic protein 6: SASSRRRQQSRNRSTQSQDVARVSSASDYNSSELKTACRKHELYVSFQDLGWQDWIIAPKGYAANYCDGECSFPLNAHMNATNHAIVQTLVHLMNPEYVPKPCCAPTKLNAISVLYFDDNSNVILKKYRNMVVRACGCH
RVD activity of HSG cells [1]: loss of volume decrease was detected | Change in TEER (MDCK1 cells): statistically significant increase in TEER | Change in TEER (SMEI cells): statistically significant increase in TEER | Change in TEER (Caco-2 cells): statistically significant increase in TEER | Increase in focus score in the salivary glands [2]: > 2 fold | Electrical potential in intact salivary glands (SMG ducts of mice): increase in electrical potential

Source: patent publication US10864285B2, “Methods for the diagnosis and treatment of Sjögren's syndrome” (The U.S.A., as represented by the Secretary, Department of …, priority 2012, dated 2020)
